# Measurements as given in the nanobody polyreactivity screen of Harvey et al. (2022).
# Assay: yeast display, Sf9 membrane polyspecificity reagent, FACS + sequencing; frameworks hold sequencing errors
# Method in brief: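 Using colony PCR, genes from sorted yeast display clones were amplified, then sequenced on MiSeq at 2 × 250 and filtered by CDR length. The clones had been stained with 10% biotinylated, detergent-solubilized Sf9 membrane reagent for 1 hour at 4 °C and sorted by FACS into low and high (top ~1%) gates on anti-HA and streptavidin fluorescence. Polyreactivity labels come from the gate of origin.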
row,Sequence,polyreactivity (PSR sort gate)
1,QVQLVESGGGLVQAGGSLRLSCAASGRTFYNYAMGWYRQAPGKERELVATITGRGGRTFYAHSVKGRFTISRDNAKNTVYLQMNSLTPEDTAVYYCAAYGSASPYYTLYVEHDYWGQGTQVTVSS,low polyreactivity
2,QVQLVESGGGLVQAGGSLRLSCAASGRTFYPNAMGWYRQAPGKEREFVARISDSGGYTYYADSVKGRFTISRDNAKNTVYLQMNSLKPEDTAVYYCAADYGDPRVNEYDYWGQGTQVTVSS,low polyreactivity
3,QVQLVESGGGLVQAGGSLRLSCAASGRTFYPNAMGWYRQAPGKERELVAAISYSGGSTYYADSVKGRFTISRDNAKNTVYLQMNSLKPEDTAVYYCAAEFSLDKRDYWGQGTQVTVSS,low polyreactivity
4,QVQLVESGGGLVQAGGSLRLSCAASGRTFYPNAMGWYRQAPRKERELVADITYSGASTYYADSVKGRFTISRDNAKNSVFLQMNSLKPEDTAVYYCNADESGVLVYVPYDYLGQGTQVTVSS,low polyreactivity
5,QVQLVESGGGLVQAGGSLRLSCAASGRTFYPNVMGWYRQAPGKERELVAAISISGGSTRYADSVKGRFTISRDNAKNTVYLQMNSLKPEDTAVYYCAAGYIYWYYSYDYWGQGTQVTVSS,high polyreactivity
6,QVQLVESGGGLVQAGGSLRLSCAASGRTFYPYAMGWYIQAPGKEREFVATITWSGTTTYYADSVKGSFTISRDNAKNTFYLQMNSLKPVDTAVYYCAADVWEVVTPYGTIDDDYWGQGTQVTVSS,high polyreactivity
7,QVQLVESGGGLVQAGGSLRLSCAASGRTFYPYAMGWYRPAPGKERELVAAIRWSGGSTYYADSVKGRFTISRDNAKNTVYLQMNSLKPEDTAVYYCNADWKSYRGPKFDYWGQGTQVTVSS,low polyreactivity
8,QVQLVESGGGLVQAGGSLRLSCAASGRTFYPYAMGWYRQAPGKEREFVAAIRWRGGSTRYADSVKGRFTISRDNAKNTVYLQMNSLKPEDTAVYYCAADLRLGLNYYYWGQGTQVTVSS,high polyreactivity
9,QVQLVESGGGLVQAGGSLRLSCAASGRTFYPYAMGWYRQAPGKERELVARISASGGSTYYADSVKGRFTISRDNAKNTVYLQMNSLKTEDTAVYYCARESFWRTLMDYWGQGTQVTVSS,high polyreactivity
10,QVQLVESGGGLVQAGGSLRLSCAASGRTFYPYAMGWYRQAPGKERELVATITWSGTTTYYADSVKGRFTISRDNAKNIVYLQMNSLKPEDTAVYYCAADVWEVVTPYGTIDDDYWGQGTQVTVSS,high polyreactivity
11,QVQLVESGGGLVQAGGSLRLSCAASGRTFYPYAMGWYRQEPGKVRELVARISSGGNTKYADSVKGRFTISRDNAKNTVYLQMNSLKPEDTAVYYCNAAHYDYVAWKRFNYWGQGTQVTVSS,high polyreactivity
12,QVQLVESGGGLVQAGGSLRLSCAASGRTFYPYVMGWYRQAPGKEREFVAAISGTGGTTYYADSVKGRFTISRDNAKTTVYLQMNSLKPEDTAVYYCNRRIPYTSYSYGYWGQGTQVTVSS,high polyreactivity
13,QVQLVESGGGLVQAGGSLRLSCAASGRTFYRNAMGWYRQAPGKDRELVAAISSGGSTTYADSVKGRFTISRDNAKNTVFFQMNSLKPEATAVYYCAARSHAGSVSPRLKEYDYWGQGTLVTVSS,low polyreactivity
14,QVQLVESGGGLVQAGGSLRLSCAASGRTFYRNAMGWYRQAPGKEREFVAVISVSGGSTYYADSVKGRFTISRDNAKNTVYLQMNSLKPEDTAVSYCAADDYYLAGDYWGQGTQVTVSS,low polyreactivity
15,QVQLVESGGGLVQAGGSLRLSCAASGRTFYRNAMGWYRQAPGKERELVARINDGAGTYYADSVKGRFTISRDNAKNTVYLQMNSLKPEDTAVYYCADDTWGTPTPFVHYPEFEHWGQGTQVTVSS,low polyreactivity
16,QVQLVESGGGLVQAGGSLRLSCAASGRTFYRNAMGWYRQAPGKERELVARITSGGSTNYADSVKGRFTISRDNAKNTVYLQMNSLKPEDTAVYYCAAVSRYYPYGYWGQGTQVNVSS,high polyreactivity
17,QVQLVESGGGLVQAGGSLRLSCAASGRTFYRNTMGWYRQAPGKERELVAAITSSGGSTYYADSVKGRFTISRDNAKNTVYLQMNSLKPEDTAVYYCAAPTWQKVVNPGGYYWGQGTQVTVSS,high polyreactivity
18,QVQLVESGGGLVQAGGSLRLSCAASGRTFYRNVMGWYRQAPGKERELVAAISSRGGSTYYADSVKGRFTISRDNAKNTVYLQMNSLKPEDTAVYYCAAPRASGYYWGQGTQVTVSS,high polyreactivity
19,QVQLVESGGGLVQAGGSLRLSCAASGRTFYRNVMGWYRQAPGKERELVAAISWSGGRTYYADSVKGRFTISRDNAKNTVYLQMNSLKPEDTAVYYCARYDRGGRHYYYWGQGTQVTVSS,high polyreactivity
20,QVQLVESGGGLVQAGGSLRLSCAASGRTFYRYAMGWYRQAPGKERELVAAIRWSGGSTYYADSVKGRFTISRDNAKNTVYLQMNSLKPEDTAVYYCAKDTFRGYSPVKYDFWGQGTQVTVSS,low polyreactivity
21,QVQLVESGGGLVQAGGSLRLSCAASGRTFYRYAMGWYRQAPGKERELVAAISRSGTTYYADSVKGRFTISRDNAKNTVYLQMNSLKPEDTAVYFCAAKPAGRQRGGDYWGQGTQVTVSS,high polyreactivity
22,QVQLVESGGGLVQAGGSLRLSCAASGRTFYRYAMGWYRQAPGKERELVAAITRRGDSTSYADSVKGRFTNSRDNAKNTVYLQMNSLKPEDTADYYCATLVQGSVYGLYGGGYWGQGTQVTVSS,low polyreactivity

row,Sequence,polyreactivity (PSR sort gate)
1,QVQLVESGGGLVQAGGSLRLSCAASGRTFYRYAMGWYRQAPGKERELVAAITRRSGNTYYADSVKGRFTISRDNAKNTVYLQMNSLKPEDTAVYYCAADPETWSPHYESLGYYWGQGTQVTVSS,high polyreactivity
2,QVQLVESGGGLVQAGGSLRLSCAASGRTFYRYGMGWYRQAPGKEREFVAAITRSGDSTYADSVKGRFTISRDNAKNTVYLQMNSLKPEDTAVYYCAKVFLRQYAYRYYYWGQGTQVTVSS,high polyreactivity
3,QVQLVESGGGLVQAGGSLRLSCAASGRTFYSNAMGWNRQAPGKERELVATITLSGGSTDYADSVKGRFTISRDNAKNTVYLQMNSLKPEDTAVYYCNADTDVHLIMGYWGQVTQVTVSS,low polyreactivity
4,QVQLVESGGGLVQAGGSLRLSCAASGRTFYSNAMGWYRQAPGKERELVAAISSSGTSTRYADSVKGRFTISRDNAKNTVYLQMNSLKPEDTAVYYCAAVGWYHDYYWGQGTQVTVSS,high polyreactivity
5,QVQLVESGGGLVQAGGSLRLSCAASGRTFYSNAMGWYRQAPGKERELVAAITSTDDSTYYADSVKGRFTISRDNAKNTVYLPMNSLKPEDTAVYYCAAESGYPVYTYVSSGDYWGQGTQVTVSS,low polyreactivity
6,QVQLVESGGGLVQAGGSLRLSCAASGRTFYSNAMGWYRQAPGKERELVAGISKRGTITYYADSVKGRFTISRDNAKNTVYLQMNSLKPEDTAVYYCAVGRPSGWSYYTGGDYWGQGTQVTVSS,high polyreactivity
7,QVQLVESGGGLVQAGGSLRLSCAASGRTFYSNAMGWYRQAPGKERELVAVIRWNGGSTYADSVKGRFTISRDNAKNTVYLQMNSLKPEDTAVYYCAVTRYHSPPRYYYWGQGTQVTVSS,low polyreactivity
8,QVQLVESGGGLVQAGGSLRLSCAASGRTFYSNVMGWYRQAPGKERELVAAISKSGGRTYYADSVKGRFTISRDNAKNTVYLQMNSLKPEDTAVYYCATDHGRYHGRYDYWGQGTQVTVSS,high polyreactivity
9,QVQLVESGGGLVQAGGSLRLSCAASGRTFYSYAIGWYRPAPGKERELVASITRSGTRTYYADSVKGRFTISRDNAKNTVYLQMNSLKPEDSAVYYCAARYFPLGGYSWGQGTQVSVSS,high polyreactivity
10,QVQLVESGGGLVQAGGSLRLSCAASGRTFYSYAMGWYRPAPGKERELVAAISRRGGSTYYADSVKGRFTISRDNAKNTVYLQMNSLKPEDTAVYYCAKGGGRVGQPGYDYWGQGTQVTVSS,high polyreactivity
11,QVQLVESGGGLVQAGGSLRLSCAASGRTFYSYAMGWYRPAPGQERELVARITWSGGTYYADSVKGRFTISRDNAKTTVYLQMNSLKPEDTAVYYCNKYRPYGRIYHLAYGRDYWGQGTQVTVSS,high polyreactivity
12,QVQLVESGGGLVQAGGSLRLSCAASGRTFYSYAMGWYRQAPGKERDLVASITRAGSTYYADSVKGRFTISRDNAKNTVYLQMNSLKPEDTAVYYCAATYRSDRRYGSHYRVDYWGQGTQVTVSS,high polyreactivity
13,QVQLVESGGGLVQAGGSLRLSCAASGRTFYSYAMGWYRQAPGKERELVAAISSSSGRTYYADSVKGRFTISRDNAKNTVYLQMNSLKPEDTGVYYCNRAGGYRTTFYSWGQGTQVTVSS,high polyreactivity
14,QVQLVESGGGLVQAGGSLRLSCAASGRTFYSYAMGWYRQAPGKERELVAAISYTGASTFYADSVKGRFTISRDKSKNTVYLQMNSLKPEDTAVYYCADRKVRFGVDYWGQGTQVTVSS,high polyreactivity
15,QVQLVESGGGLVQAGGSLRLSCAASGRTFYSYAMGWYRQAPGKERELVAAISYTGASTFYADSVKGRFTISRDNAKNTVYLQMNSLKPEDTAVYYCAGRKVRFGVDYWGQGTQVTVSS,high polyreactivity
16,QVQLVESGGGLVQAGGSLRLSCAASGRTFYSYAMGWYRQAPGKERELVASISSGGGTNYADSVKGRFTISRDNAKNTVYLQMNSLKPEDTAVYYCAAKYWFFYPYDYWGQGTQVTVSS,low polyreactivity
17,QVQLVESGGGLVQAGGSLRLSCAASGRTFYSYAMGWYRQAPGTERELVAAITSSGGRTYYADSVKGRFTISRDNAKNTVYLQMNSLKPEDTAVYYCAAKWITRRGGDFDYWGQGTQVTVSS,high polyreactivity
18,QVQLVESGGGLVQAGGSLRLSCAASGRTFYSYSMGWYRQAPGKERELVAAINRSGGRTYYADSVKGRFTISRDNAKNTVYLQMNSLKPEDTAVYYCNALEYYRYDYWGQGTQVTVSS,high polyreactivity
19,QVQLVESGGGLVQAGGSLRLSCAASGRTFYTNAMGWYRQAPGKERELVAVISRGGTTYYADSVKGRFTISRDNAQNSVSLQMNSLKPDDTAVYYCAKRSPYRYYGYKLRDYWGQGTQVTVSS,low polyreactivity
20,QVQLVESGGGLVQAGGSLRLSCAASGRTFYTYAMGWYRQAPGKEREFVAAITGSGGSTYYADSVKGRFTISRDNAKNTVYLQLNSLKPEDTAVYYCNARSPGDVWYYYWGQGTQVTVSS,low polyreactivity
21,QVQLVESGGGLVQAGGSLRLSCAASGRTFYTYAMGWYRQAPGKERELVAAINWSATRTYYADSVKGRFTISRDNAKNTVYLQMNSLKPEDTAVYYCNAVYYRSSYPSGRYGMDYWGQGTQVTVSS,high polyreactivity
